Measurements reported in PMC4513130, “Neuronal Calcium Sensor-1 Binds the D2 Dopamine Receptor and G-protein-coupled Receptor Kinase 1 (GRK1) Peptides Using Different Modes of Interactions*” (The Journal of Biological Chemistry, 2015).

Legend:
[1] = target: T1, Rattus norvegicus neuronal calcium sensor-1 (NCS-1), full-length, Ca2+-bound (Rattus norvegicus, UniProt P62168 1-190); assay: ITC; 1 mM Ca2+/NCS-1 in the syringe titrated into 100 uM D2R peptide in the cell, 25 °C, 50 mM Tris-HCl, 50 mM NaCl, 5 mM CaCl2, pH 7.5; fitted to a sequential model and to a two-site nonsequential model with stoichiometry fixed at 1:2 NCS-1:peptide; conditions: both partners purified
T1 construct: Neuronal calcium sensor-1, Rattus norvegicus, Swiss-Prot P62168, full length (residues 1-190); also called Ca2+/NCS-1; rat NCS-1

[2] = target: T1, Rattus norvegicus neuronal calcium …; assay: crystal structure; NCS-1 (1 mM) with 2-fold excess of GRK1 peptide; 0.12 M alcohols, 0.1 M HEPES/MOPS pH 7.5, 30% PEGMME 550 and PEG 20000, 20 °C; 2.30 Å; conditions: both partners purified

B1: D2 receptor peptide (D2R peptide) (peptide)
peptide: NIEFRKAFLKILHSR
notes: terminal Arg added to improve solubility; also called D2B (copy in the N-lobe site); D2C (copy in the C-lobe site); source: synthetic peptide, bought: GenicBio, China (>95% pure)
[1]
  Kd: 40 ± 6 µM

B2: GRK1 peptide (N terminus of G-protein-coupled receptor kinase 1, residues 1-25) (peptide)
peptide: MDFGSLETVVANSAFIAARGSFDGS
notes: also called RK25; source: synthetic peptide, bought: GenicBio, China (>95% pure)
[2]
  binding result: binds
